These results are taken from patent US20250327097A1, “ORGANISMS PRODUCING LESS CROTONIC ACID” (Global Bioenergies, priority 2021, published 2025).

To fix the notation:
B1: I283T-P284D-i284aP-N287P-S322T-Q365I-N388M-E421V-C430N-L432F-L434W-S436N-H461T-dG462-A463T (protein)
chain: MFLKSLREQINLLKRQGDLRIINRPVDSYLEAAAIIRRSTETKAPVPLMTNIKGYPGCSIVGGLAALSSNPEYPLSRVAMSLGLSTTASAQSIVQYLIDGLKKTPYLPVEIDSNSAPCKQNILRGEDASLAHFPIPQVHQHDGNRYVNTWGVFIVESPDGQWCNWSIQRVQYLNDRQMIALVFPSQHISDIWEEWVKIGKPMPYALVQGCEPIVPYIAGLPLLERNVNEAEYIGALYGKGIEVVKCETHDLRVPASSEVVIEGYFAITREGVEGPFGEFAGYTDNEPSLQPILSITAISWQDDPIWPVVAEGKPVDEYHTCTGIGDAAAIQNVLLTANLPVSFVWVPLYSACHLMIVSINRHWRITHPDLTSEQLTKKVGDVIHQTRMSIKLPKIVVLDDDVDPADTESLLWALATRIHPVRKRYFYESNIFPWLNCYSEEERHNRKGKRVIIDALLPENTGTISSFDYAYPDDIKQRVLMHWETDFSHD
B2: I283T-P284D-i284aP-N287P-S322T-N388M-E421V-C430N-L432F-L434W-S436N-C437F-H461T-dG462-A463T (protein)
chain: B1 chain with I365Q, C437F
B3: I283T-P284D-i284aP-N287P-S322T-N388M-E421V-C430N-L432F-L434W-S436N-G448E-H461T-dG462-A463T (protein)
chain: B1 chain with I365Q, G448E
B4: I283T-P284D-i284aP-N287P-S322T-N388M-E421V-C430N-L432F-L434W-S436N-H461T-G462R-i462aA-A463T (protein)
chain: B1 chain with I365Q, G462R
B5: I283T-P284D-i284aP-N287P-S322T-Q385G-N388M-E421V-C430N-L432F-L434W-S436N-H461T-dG462-A463T (protein)
chain: B1 chain with I365Q, Q385G
B6: I283T-P284D-i284aP-N287P-S322T-Q385S-N388M-E421V-C430N-L432F-L434W-S436N-H461T-dG462-A463T (protein)
chain: B1 chain with I365Q, Q385S
B7: I283T-P284D-i284aP-N287P-S322T-N388M-E421V-C430N-I431M-L432F-L434W-S436N-H461T-dG462-A463T (protein)
chain: B1 chain with I365Q, I431M
B8: I283T-P284D-i284aP-N287P-S322T-N388M-E421V-C430N-L432F-L434W-S436N-G448C-H461T-dG462-A463T (protein)
chain: B1 chain with I365Q, G448C
B9: I283T-P284D-i284aP-N287P-S322T-H384G-N388M-E421V-C430N-L432F-L434W-S436N-H461T-dG462-A463T (protein)
chain: B1 chain with I365Q, H384G
B10: I283T-P284D-i284aP-N287P-L289R-S322T-N388M-E421V-C430N-L432F-L434W-S436N-H461T-dG462-A463T (protein)
chain: B1 chain with L289R, I365Q
B11: I283T-P284D-i284aP-N287P-S322T-H384L-N388M-E421V-C430N-L432F-L434W-S436N-H461T-dG462-A463T (protein)
chain: B1 chain with I365Q, H384L
B12: I283T-P284D-i284aP-N287P-S322T-N388M-E421V-C430N-L432F-L434W-S436N-C437G-H461T-dG462-A463T (protein)
chain: B1 chain with I365Q, C437G
B13: I283T-P284D-i284aP-N287P-S322T-Q385L-N388M-E421V-C430N-L432F-L434W-S436N-H461T-dG462-A463T (protein)
chain: B1 chain with I365Q, Q385L
B14: I283T-P284D-i284aP-N287P-S322T-N388M-E421V-C430N-L432F-L434W-S436N-G448V-H461T-dG462-A463T (protein)
chain: B1 chain with I365Q, G448V
B15: I283T-P284D-i284aP-N287P-S322T-N388M-E421V-C430N-L432F-L434W-S436N-H461T-dG462-A463T-D468L (protein)
chain: B1 chain with I365Q, D468L
B16: I283T-P284D-i284aP-N287P-S322T-N388M-E421V-C430N-L432F-L434W-S436N-H461T-dG462-A463T-Y469A (protein)
chain: B1 chain with I365Q, Y469A
B17: I283T-P284D-i284aP-E286A-N287P-S322T-N388M-E421V-C430N-L432F-L434W-S436N-H461T-dG462-A463T (protein)
chain: B1 chain with E286A, I365Q
B18: I283T-P284D-i284aP-E286S-N287P-S322T-N388M-E421V-C430N-L432F-L434W-S436N-H461T-dG462-A463T (protein)
chain: B1 chain with E286S, I365Q
B19: I283T-P284D-i284aP-N287P-S322T-Q385T-N388M-E421V-C430N-L432F-L434W-S436N-H461T-dG462-A463T (protein)
chain: B1 chain with I365Q, Q385T
B20: I283T-P284D-i284aP-N287P-S322T-N388M-E421V-C430N-L432F-L434W-S436N-H461T-dG462-A463T-Y469H (protein)
chain: B1 chain with I365Q, Y469H
B21: H141C-I283T-N285P-N287T-Q290E-S322T-I330V-N388M-S389H-K394R-C430A-i430aG-L432F-L434W-S436N-dG462 (protein)
chain: MFLKSLREQINLLKRQGDLRIINRPVDSYLEAAAIIRRSTETKAPVPLMTNIKGYPGCSIVGGLAALSSNPEYPLSRVAMSLGLSTTASAQSIVQYLIDGLKKTPYLPVEIDSNSAPCKQNILRGEDASLAHFPIPQVHQCDGNRYVNTWGVFIVESPDGQWCNWSIQRVQYLNDRQMIALVFPSQHISDIWEEWVKIGKPMPYALVQGCEPIVPYIAGLPLLERNVNEAEYIGALYGKGIEVVKCETHDLRVPASSEVVIEGYFAITREGVEGPFGEFAGYTPPETSLEPILSITAISWQDDPIWPVVAEGKPVDEYHTCTGIGDAAAVQNVLLTANLPVSFVWVPLYSACHLMIVSINRHWRQTHPDLTSEQLTKKVGDVIHQTRMHIKLPRIVVLDDDVDPADTESLLWALATRIHPERKRYFYESAIFPWLNCYSEEERHNRKGKRVIIDALLPENHGAISSFDYAYPDDIKQRVLMHWETDFSHD
B22: E224P-I283T-N285P-N287T-Q290E-S322T-N388M-K394R-C430A-i430aG-L432F-L434W-S436N-dG462 (protein)
chain: B21 chain with C141H, E224P, V330I, H389S
B23: I283T-N285P-N287T-Q290E-S322T-I330V-N388M-S389H-K394R-C430A-i430aG-L432F-L434W-S436N-V451S-dG462 (protein)
chain: B21 chain with C141H, V451S
B24: I283T-N285P-N287T-Q290E-S322T-N388M-S389H-K394R-C430A-i430aG-L432F-L434W-S436N-I453L-dG462 (protein)
chain: B21 chain with C141H, V330I, I453L
B25: E224P-I283T-N285P-N287T-Q290E-S322T-N388M-S389H-K394R-C430A-i430aG-L432F-L434W-S436N-dG462 (protein)
chain: B21 chain with C141H, E224P, V330I
B26: L222V-E224P-I283T-N285P-N287T-Q290E-S322T-N388M-K394R-C430A-i430aG-L432F-L434W-S436N-dG462 (protein)
chain: B21 chain with C141H, L222V, E224P, V330I, H389S
B27: E224A-I283T-N285P-N287T-Q290E-S322T-N388M-S389H-K394R-C430A-i430aG-L432F-L434W-S436N-dG462 (protein)
chain: B21 chain with C141H, E224A, V330I

Where a chain is given by its changes, count along the chain named. In names and notes the source's numbering stands.

The experiment deals with 3-methylcrotonic acid. It is filed as biochemical, Yersinia frederiksenii. On the set-up: key: “+” representing a low increase in activity; “++++” representing a high increase in activity.
Turning to B1, the “Activity relative to WT” value is listed as “++++”. Take B2: the “Activity relative to WT” value was “++++”. Turning to B3, the “Activity relative to WT” value is reported as “++++”. Turning to B4, the “Activity relative to WT” value is “++++”. For B5 the value was “++++”. Take B6: the “Activity relative to WT” value is given as “++++”. For B7 the value was “++++”.

B8: the “Activity relative to WT” value is “++++”.

Consider B9, for which the “Activity relative to WT” value is reported as “++++”. As for B10, the “Activity relative to WT” value was “++++”. For the molecule B11, the “Activity relative to WT” value is “++++”.

On to B12, for which the “Activity relative to WT” value was “++++”. For B13 the value was “++++”; for B14, “++++”; for B15, “++++”. As for B16, the “Activity relative to WT” value is given as “++++”. Next, B17: “++++”. Next, B18: “++++”; B19: “++++”. Turning to B20, the “Activity relative to WT” value was “++++”. Next, B21: “++++”.

Take B22: the “Activity relative to WT” value is “++++”.

For the molecule B23, the “Activity relative to WT” value is “++++”. For B24, the “Activity relative to WT” value was “++++”. For B25, the “Activity relative to WT” value is listed as “++++”. For B26 the value was “++++”; for B27, “++++”.
